Ends that are not written are not given here.
T1: SspB protein (ClpX adaptor) (Escherichia coli, UniProt P0AFZ3 1-165)
T1 sequence: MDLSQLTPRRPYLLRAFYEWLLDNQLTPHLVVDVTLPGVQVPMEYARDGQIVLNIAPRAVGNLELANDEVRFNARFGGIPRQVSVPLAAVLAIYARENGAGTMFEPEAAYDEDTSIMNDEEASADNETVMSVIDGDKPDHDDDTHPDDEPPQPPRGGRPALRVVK


Target: T1, SspB protein (ClpX adaptor)
Assay: MST

First: eGFP-AANDENYSENYADAS (not fully specified) [eGFP-AANDENYSENYADAS]
Second: eGFP-AANDENYALAA (not fully specified) [eGFP-AANDENYALAA]
The Kd of the first is 3.8-fold higher: 300 nM for the first, 80 nM for the second.

Going from eGFP-AANDENYSENY (not fully specified) [eGFP-AANDENYSENY] to eGFP-AANDENYADAS (not fully specified) [eGFP-AANDENYADAS], the Kd rises from 100 nM to 330 nM (3.3-fold). The first binds more tightly here.
